Test results taken from patent publication US20140378374A1, “METHODS OF TREATMENT” (GlaxoSmithKline Intellectual Property (No.2) Limited, priority 2013, published 2014).
Like-named read-outs stand apart in the source and are kept apart here.

Columns and labels:
patients with T2DM = assay: Phase 3 pooled analysis (Harmony 2, 4, 5, 8) of efficacy and safety by renal impairment severity, through primary endpoint (26 to 52 weeks)
Protocol: Patients with T2DM were enrolled in 3 similarly designed Phase 3 studies ^11-13 (Harmony 2, Harmony 4 and Harmony 5) and one Phase 3 study in patients with varying degrees of renal impairment (Harmony 8). ^10 These studies were randomized, double-blind (one open-label), active- (sitagliptin, pioglitazone, or glimepiride) or placebo-controlled, parallel-group, multicenter trials in which albiglutide (30 to 50 mg) was administered once weekly. In all 4 studies, men and nonpregnant women who were ≧18 years of age with a historical diagnosis of T2DM, and who were inadequately controlled (HbA1c≧7.0% and ≦10.0%) on diet and exercise and/or their current regimen of anti-diabetic agents (ie, metformin, thiazolidinedione, sulfonylurea, or any combination of these oral anti-diabetic medications) were eligible to enroll. Additional eligibility criteria included fasting C peptide of ≧0.8 ng/mL (≧0.26 nmol/L) and BMI between 20 and 45 kg/m^2. Harmony 8, the study in CKD patients, required estimated GFR≧15 and <90 mL/min/1.73 m^2, whereas the other 3 studies required estimated GFR>60 mL/min/1.73 m^2. […] Patients who met additional exclusion criteria, including requirements for levels of total bilirubin, alanine aminotransferase, aspartate aminotransferase, amylase, lipase, fasting triglycerides, and hemoglobin were also excluded.
Efficacy (HbA1c, fasting plasma glucose [FPG] and body weight) was assessed in each of the 4 studies by change from baseline to the primary endpoint (week 26 to week 52) using last observation carried forward for missing data. Rescue medications were allowed in subjects with persistent hyperglycemia (REF), however, efficacy data obtained after hyperglycemic rescue were not included and replaced with pre-rescue values for efficacy evaluation. Safety was assessed by monitoring the incidence of treatment emergent adverse events throughout the studies.
To evaluate efficacy and tolerability in different renal population, efficacy and tolerability data from patients with pop PK sample across 4 Phase 3 studies were extracted. Descriptive analysis were conducted up to primary endpoint (week 52 for Harmony 2, Harmony 4 and Harmony 5 and week 26 for study Harmony 8). Baseline demographics are summarized by renal impairment severity (normal, mild, moderate and severe). Efficacy parameters such as change from baseline of HbA1c, FPG, weight are also summarized by renal impairment severity. LOCF (Last Observation Carried Forward) approach is used in efficacy evaluation. Except for hypoglycemia, tolerability (AE, SAE and AE cause withdraw) were summarized by renal impairment severity for all data up to primary endpoint including post-rescue data. Hypoglycemia events (severe and documented symptomatic) were evaluated by renal impairment severity only include pre-rescue data.

[1] = in vivo, cited from earlier work
[2] = range over renal function groups of the pooled analysis

Substance: Albiglutide: recombinant fusion protein of 2 copies of modified human GLP-1 (fragment 7-36(A8G)) genetically fused in series to recombinant human serum albumin
- neutralizing anti-albiglutide antibodies (patients with T2DM; 4 trials of the pooled analysis): none of the antibodies were neutralizing
- Pre-Rescue Hypoglycemia: Documented Symptomatic, With background SU (patients with T2DM; Mild): 70 (17) N (%)
- Pre-Rescue Hypoglycemia: Documented Symptomatic, Without background SU (patients with T2DM; Mild): 3 (1.4) N (%)
- Pre-Rescue Hypoglycemia: Severe, With background SU (patients with T2DM; Mild): 1 (0.2) N (%)
- Pre-Rescue Hypoglycemia: Severe, Without background SU (patients with T2DM; Mild): 0 (0) N (%)
- AEs leading to withdrawal (patients with T2DM; Mild (n = 633)): 37 (5.8) N (%)
- Abdominal distention (patients with T2DM; Mild (n = 633)): 5 (0.8) N (%)
- Anemia (patients with T2DM; Mild (n = 633)): 15 (2.4) N (%)
- Any AE (patients with T2DM; Mild (n = 633)): 511 (81) N (%)
- Constipation (patients with T2DM; Mild (n = 633)): 25 (3.9) N (%)
- Diarrhea (patients with T2DM; Mild (n = 633)): 55 (8.7) N (%)
- Edema peripheral (patients with T2DM; Mild (n = 633)): 21 (3.3) N (%)
- Gastrointestinal disorders system organ class: Any event (patients with T2DM; Mild (n = 633)): 205 (32) N (%)
- Injection site reaction (patients with T2DM; Mild (n = 633)): 51 (8.1) N (%)
- Nasopharyngitis (patients with T2DM; Mild (n = 633)): 51 (8.1) N (%)
- Nausea (patients with T2DM; Mild (n = 633)): 60 (9.5) N (%)
- Pre-Rescue Hypoglycemia: Documented Symptomatic (overall) (patients with T2DM; Mild (n = 633)): 73 (12) N (%)
- Pre-Rescue Hypoglycemia: Severe (overall) (patients with T2DM; Mild (n = 633)): 1 (0.2) N (%)
- Renal Impairment (adverse event) (patients with T2DM; Mild (n = 633)): 0 (0) N (%)
- Serious AE (patients with T2DM; Mild (n = 633)): 52 (8.2) N (%)
- Pre-Rescue Hypoglycemia: Documented Symptomatic, With background SU (patients with T2DM; Moderate): 28 (20) N (%)
- Pre-Rescue Hypoglycemia: Documented Symptomatic, Without background SU (patients with T2DM; Moderate): 0 (0) N (%)
- Pre-Rescue Hypoglycemia: Severe, With background SU (patients with T2DM; Moderate): 0 (0) N (%)
- Pre-Rescue Hypoglycemia: Severe, Without background SU (patients with T2DM; Moderate): 0 (0) N (%)
- AEs leading to withdrawal (patients with T2DM; Moderate (n = 175)): 11 (6.3) N (%)
- Abdominal distention (patients with T2DM; Moderate (n = 175)): 2 (1.1) N (%)
- Anemia (patients with T2DM; Moderate (n = 175)): 5 (2.9) N (%)
- Any AE (patients with T2DM; Moderate (n = 175)): 139 (79) N (%)
- Constipation (patients with T2DM; Moderate (n = 175)): 11 (6.3) N (%)
- Diarrhea (patients with T2DM; Moderate (n = 175)): 23 (13) N (%)
- Edema peripheral (patients with T2DM; Moderate (n = 175)): 4 (2.3) N (%)
- Gastrointestinal disorders system organ class: Any event (patients with T2DM; Moderate (n = 175)): 58 (33) N (%)
- Injection site reaction (patients with T2DM; Moderate (n = 175)): 12 (6.9) N (%)
- Nasopharyngitis (patients with T2DM; Moderate (n = 175)): 14 (8.0) N (%)
- Nausea (patients with T2DM; Moderate (n = 175)): 13 (7.4) N (%)
- Pre-Rescue Hypoglycemia: Documented Symptomatic (overall) (patients with T2DM; Moderate (n = 175)): 28 (16) N (%)
- Pre-Rescue Hypoglycemia: Severe (overall) (patients with T2DM; Moderate (n = 175)): 0 (0) N (%)
- Renal Impairment (adverse event) (patients with T2DM; Moderate (n = 175)): 3 (1.7) N (%)
- Serious AE (patients with T2DM; Moderate (n = 175)): 17 (9.7) N (%)
- Pre-Rescue Hypoglycemia: Documented Symptomatic, With background SU (patients with T2DM; Normal): 44 (21) N (%)
- Pre-Rescue Hypoglycemia: Documented Symptomatic, Without background SU (patients with T2DM; Normal): 0 (0) N (%)
- Pre-Rescue Hypoglycemia: Severe, With background SU (patients with T2DM; Normal): 1 (0.3) N (%)
- Pre-Rescue Hypoglycemia: Severe, Without background SU (patients with T2DM; Normal): 0 (0) N (%)
- AEs leading to withdrawal (patients with T2DM; Normal (n = 286)): 11 (3.8) N (%)
- Abdominal distention (patients with T2DM; Normal (n = 286)): 2 (0.7) N (%)
- Anemia (patients with T2DM; Normal (n = 286)): 6 (2.1) N (%)
- Any AE (patients with T2DM; Normal (n = 286)): 232 (81) N (%)
- Constipation (patients with T2DM; Normal (n = 286)): 8 (2.8) N (%)
- Diarrhea (patients with T2DM; Normal (n = 286)): 20 (7.0) N (%)
- Edema peripheral (patients with T2DM; Normal (n = 286)): 5 (1.7) N (%)
- Gastrointestinal disorders system organ class: Any event (patients with T2DM; Normal (n = 286)): 76 (27) N (%)
- Injection site reaction (patients with T2DM; Normal (n = 286)): 32 (11) N (%)
- Nasopharyngitis (patients with T2DM; Normal (n = 286)): 19 (6.6) N (%)
- Nausea (patients with T2DM; Normal (n = 286)): 23 (8.0) N (%)
- Pre-Rescue Hypoglycemia: Documented Symptomatic (overall) (patients with T2DM; Normal (n = 286)): 44 (15) N (%)
- Pre-Rescue Hypoglycemia: Severe (overall) (patients with T2DM; Normal (n = 286)): 1 (0.3) N (%)
- Renal Impairment (adverse event) (patients with T2DM; Normal (n = 286)): 0 (0) N (%)
- Serious AE (patients with T2DM; Normal (n = 286)): 17 (5.9) N (%)
- Pre-Rescue Hypoglycemia: Documented Symptomatic, With background SU (patients with T2DM; Severe): 4 (29) N (%)
- Pre-Rescue Hypoglycemia: Documented Symptomatic, Without background SU (patients with T2DM; Severe): 0 (0) N (%)
- Pre-Rescue Hypoglycemia: Severe, With background SU (patients with T2DM; Severe): 0 (0) N (%)
- Pre-Rescue Hypoglycemia: Severe, Without background SU (patients with T2DM; Severe): 0 (0) N (%)
- AEs leading to withdrawal (patients with T2DM; Severe (n = 19)): 2 (11) N (%)
- Abdominal distention (patients with T2DM; Severe (n = 19)): 2 (11) N (%)
- Anemia (patients with T2DM; Severe (n = 19)): 4 (21) N (%)
- Any AE (patients with T2DM; Severe (n = 19)): 12 (63) N (%)
- Constipation (patients with T2DM; Severe (n = 19)): 2 (11) N (%)
- Diarrhea (patients with T2DM; Severe (n = 19)): 4 (21) N (%)
- Edema peripheral (patients with T2DM; Severe (n = 19)): 3 (16) N (%)
- Gastrointestinal disorders system organ class: Any event (patients with T2DM; Severe (n = 19)): 8 (42) N (%)
- Injection site reaction (patients with T2DM; Severe (n = 19)): 1 (5.3) N (%)
- Nasopharyngitis (patients with T2DM; Severe (n = 19)): 1 (5.3) N (%)
- Nausea (patients with T2DM; Severe (n = 19)): 3 (16) N (%)
- Pre-Rescue Hypoglycemia: Documented Symptomatic (overall) (patients with T2DM; Severe (n = 19)): 4 (21) N (%)
- Pre-Rescue Hypoglycemia: Severe (overall) (patients with T2DM; Severe (n = 19)): 0 (0) N (%)
- Renal Impairment (adverse event) (patients with T2DM; Severe (n = 19)): 4 (21) N (%)
- Serious AE (patients with T2DM; Severe (n = 19)): 0 (0) N (%)
- treatment effect as measured by HbA1c and FPG vs GFR (patients with T2DM; change from baseline, scatter plot): trend towards greater reductions as GFR decreased
- thyroid cancer (patients with T2DM; in vivo): No patient developed thyroid cancer
- nausea, percentage (patients with T2DM; mild group): 9.5%
- vomiting, percentage (patients with T2DM; mild group): 3.2%
- nausea, percentage (patients with T2DM; moderate group): 7.4%
- vomiting, percentage (patients with T2DM; moderate group): 2.9%
- nausea, percentage (patients with T2DM; normal group): 8.0%
- vomiting, percentage (patients with T2DM; normal group): 2.1%
- subjects with severe hypoglycemic events (patients with T2DM; normal, mild renal impairment, with background SU use): 2
- patients with probable pancreatitis at least possibly related to study drug (patients with T2DM; one with mild and one with moderate renal impairment): Two
- nausea percentage, range (patients with T2DM; [2]): 7-16%
- vomiting percentage, range (patients with T2DM; [2]): 2-5%
- incidence of anti-albiglutide antibodies (patients with T2DM; range over the 4 trials of the pooled analysis): 2.8% to 8.1
- nausea, percentage (patients with T2DM; severe group): 16%
- vomiting, percentage (patients with T2DM; severe group): 5.3%
- half-life [1]: approximately 5 days
- half-life ([1]; listed as SEQ ID NO:1): about 5 days
